Six molecules from article PMC10022624, “A mini-TGA protein modulates gene expression through heterogeneous association with transcription factors” (Plant Physiology, 2022) can be followed below.

By stoichiometry N is commonly meant the number of molecules, sites or subunits per partner or assembly.

For data set [1], the target named is HA-tagged StTGA2.3, expressed in N. benthamiana (potato (Solanum tuberosum)).
For data set [2], the target named is T1, StTGA2.3 (Solanum tuberosum cv. Rywal, UniProt A0A9F1U446 1-327).
T1 sequence: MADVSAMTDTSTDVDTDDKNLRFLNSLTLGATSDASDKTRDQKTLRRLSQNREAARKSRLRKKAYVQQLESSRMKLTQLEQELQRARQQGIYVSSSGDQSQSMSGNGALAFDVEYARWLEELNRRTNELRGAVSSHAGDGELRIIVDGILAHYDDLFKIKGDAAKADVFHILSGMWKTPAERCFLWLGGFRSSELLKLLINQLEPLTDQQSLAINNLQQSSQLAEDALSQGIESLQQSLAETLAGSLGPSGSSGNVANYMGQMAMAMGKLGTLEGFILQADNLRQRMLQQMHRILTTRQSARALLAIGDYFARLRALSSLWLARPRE
Kind of data set: SPR; 1 mM Mg2+; dose-dependent response; SPR Biacore T200, 25 C, 25 mM Tris pH 7.4, 140 mM NaCl (180 mM for StTGA2.1 alone), 1 mM MgCl2, 0.005% P20. The note with it: protein: ivt; tags: C-terminal GS peptide; chain copies: 2; 5' overhang 15 nt on strand 1. (In general: SPR reads the build-up and loss of mass on a sensor chip optically.)

The target of data set [3] is T2, StTGA2.3;StTGA2.1 (mini-TGA) (Solanum tuberosum cv. Rywal;Solanum …, UniProt A0A9F1U446;A0A9F1U434 1-327;1-270, |).
T2 sequence 1: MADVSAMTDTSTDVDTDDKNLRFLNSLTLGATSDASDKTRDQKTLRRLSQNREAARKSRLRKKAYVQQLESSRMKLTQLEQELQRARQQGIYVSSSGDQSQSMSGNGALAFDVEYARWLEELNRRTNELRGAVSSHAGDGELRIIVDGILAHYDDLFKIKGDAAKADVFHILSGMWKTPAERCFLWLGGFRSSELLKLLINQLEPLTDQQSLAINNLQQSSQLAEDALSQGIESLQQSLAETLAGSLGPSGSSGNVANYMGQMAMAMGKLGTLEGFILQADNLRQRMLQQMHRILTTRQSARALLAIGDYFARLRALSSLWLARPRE
T2 sequence 2: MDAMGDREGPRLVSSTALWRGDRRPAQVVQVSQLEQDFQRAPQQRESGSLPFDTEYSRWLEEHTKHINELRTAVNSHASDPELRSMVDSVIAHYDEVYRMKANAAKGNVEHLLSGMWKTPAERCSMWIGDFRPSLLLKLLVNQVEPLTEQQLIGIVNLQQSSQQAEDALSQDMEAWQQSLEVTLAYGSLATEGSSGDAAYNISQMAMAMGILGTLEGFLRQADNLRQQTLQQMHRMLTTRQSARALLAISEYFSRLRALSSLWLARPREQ
Kind of data set: SPR; premixed with 300 nM StTGA2.1; higher response than StTGA2.3 alone; SPR Biacore T200, 25 C, 25 mM Tris pH 7.4, 140 mM NaCl (180 mM for StTGA2.1 alone), 1 mM MgCl2, 0.005% P20. The note with it: protein: ivt;recombinant; tags: C-terminal GS peptide;N-terminal His6; copies: 1;1; 5' overhang 15 nt on strand 1.

Another data set deals with T3, StTGA2.1 (mini-TGA) (Solanum tuberosum cv. Rywal, UniProt A0A9F1U434 1-270).
T3 sequence: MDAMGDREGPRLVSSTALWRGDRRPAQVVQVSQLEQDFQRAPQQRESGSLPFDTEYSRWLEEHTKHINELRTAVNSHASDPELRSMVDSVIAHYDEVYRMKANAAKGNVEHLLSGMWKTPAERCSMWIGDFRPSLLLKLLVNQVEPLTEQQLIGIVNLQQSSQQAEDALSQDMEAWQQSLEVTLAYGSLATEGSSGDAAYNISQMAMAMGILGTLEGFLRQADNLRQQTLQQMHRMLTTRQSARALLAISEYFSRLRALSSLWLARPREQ
Kind of data set: SPR; 18.75-300 nM protein; 180 mM NaCl; 1 mM Mg2+; SPR Biacore T200, 25 C, 25 mM Tris pH 7.4, 140 mM NaCl (180 mM for StTGA2.1 alone), 1 mM MgCl2, 0.005% P20. The note with it: protein: recombinant; tags: N-terminal His6; chain copies: 2; 5' overhang 15 nt on strand 1.

Data set [4] deals with T1, StTGA2.3. Briefly: SPR; 1 mM Mg2+; interaction negligible; SPR Biacore T200, 25 C, 25 mM Tris pH 7.4, 140 mM NaCl (180 mM for StTGA2.1 alone), 1 mM MgCl2, 0.005% P20. The note with it: protein: ivt; tags: C-terminal GS peptide; chain copies: 2; 5' overhang 15 nt on strand 1.
Data set [5] concerns the molecule itself. Kind of data set: SEC; His6-tagged StTGA2.1; oligomeric state from elution volume against the Gel Filtration LMW calibration kit; 30 mM Tris pH 7.5, 400 mM NaCl. For orientation: Size exclusion chromatography separates by hydrodynamic size, large species first.

In the case of “StTGA2.1, GFP- or HA-tagged, expressed in N. benthamiana (natural protein)”, the StPRX07::LucF promoter activity (luciferase transactivation assay) in N. benthamiana leaves coexpressing GFP-tagged StTGA2.1 and BFP-tagged StTGA2.3, compared to control in data set [1] was above 2 fold.

B1: PRX07p_1 (dsDNA)
DNA 1: GTTACTACTCGAGCGTGTGCCCAACGTCACAATCC
DNA 2: GGATTGTGACGTTGGGCACA
For B1, the binding result with StTGA2.3 [2] is recorded as “binds”; in data set [3] it was “binds”; in the data set with StTGA2.1 (mini-TGA), “no binding”.

B2: PRX15p_1 (dsDNA)
DNA 1: GTTACTACTCGAGCGTTTAATAATGATGACATTTG
DNA 2: CAAATGTCATCATTATTAAA
As for B2, the binding result in the data set with StTGA2.3 [4] and with StTGA2.1 (mini-TGA) was “no binding” in each case.

B3: PRX07p_2 (dsDNA)
DNA 1: GTTACTACTCGAGCGTTAGGGGTGACGTTTCCAAT
DNA 2: ATTGGAAACGTCACCCCTAA
In the case of B3, the binding result is listed as “binds” with StTGA2.3 [2], “binds” in data set [3] and “no binding” in the data set with StTGA2.1 (mini-TGA).

B4: PRX46p (dsDNA)
DNA 1: GTTACTACTCGAGCGTGAACCTGAGGTCAACCGTT
DNA 2: AACGGTTGACCTCAGGTTCA
For B4, the binding result with StTGA2.3 [4] and in the data set with StTGA2.1 (mini-TGA) was “no binding” each time.

B5: His6-tagged StTGA2.1, recombinant (natural protein, potato (Solanum tuberosum), UniProt A0A9F1U434 1-270, looked up)
chain: MDAMGDREGPRLVSSTALWRGDRRPAQVVQVSQLEQDFQRAPQQRESGSLPFDTEYSRWLEEHTKHINELRTAVNSHASDPELRSMVDSVIAHYDEVYRMKANAAKGNVEHLLSGMWKTPAERCSMWIGDFRPSLLLKLLVNQVEPLTEQQLIGIVNLQQSSQQAEDALSQDMEAWQQSLEVTLAYGSLATEGSSGDAAYNISQMAMAMGILGTLEGFLRQADNLRQQTLQQMHRMLTTRQSARALLAISEYFSRLRALSSLWLARPREQ
notes: StTGA2.1, potato (Solanum tuberosum) cultivar Rywal; full-length cds in pMCSG7; C-terminal region printed as aa 47-240; Dimer by SEC elution volume; The tag is removable by TEV protease; not shown: His6, N-terminal, kept
B5: the “stoichiometry N” value in data set [5] was determined as 2.
